According to US12269859B2, “Synthetic immune receptors and methods of use thereof” (Angeles Therapeutics, Inc., priority 2016, dated 2025):

Test system: target antigen-expressing cell line
Assay: Jurkat NFAT-GFP assay, coculture with target cell lines expressing the respective target antigen (summary Table 10A)
Format: cell-based, human
Parameters: key: The signs +/−, +, 2+ etc. after the name of the cell lines indicate the relative degree of positivity on the Jurkat-NFAT-GFP assay as measured by the % GFP positive cells; +: relative degree of positivity on the Jurkat-NFAT-GFP assay as measured by the % GFP positive cells; 2+: relative degree of positivity on the Jurkat-NFAT-GFP assay as measured by the % GFP positive cells
Details: relative % GFP positive cells; for NFAT-GFP ASSAY Positive Cell lines: L428: SIR-expressing Jurkat-NFAT-GFP cells cocultured with L428; for NFAT-GFP ASSAY Positive Cell lines: Bv173: SIR-expressing Jurkat-NFAT-GFP cells cocultured with Bv173
Procedure, shortened: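 Positivity is scored when SIR-expressing reporter Jurkat cells show more GFP-positive cells than parental controls after coculture with the antigen-bearing line. Effector-to-target ratio is about 1:2, coculture lasts roughly 4–18 hours, and GFP is quantified by FACS.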

B1: 031517-T06 (protein)
chain: MALPVTALLLPLALLLHAARPLEGKPIPNPLLGLDSTGSGEDLKNVFPPEVAVFEPSKAEIAHTQKATLVCLATGFYPDHVELSWWVNGKEVHSGVCTDPQPLKEQPALNDSRYCLSSRLRVSATFWQNPRNHFRCQVQFYGLSENDEWTQDRAKPVTQIVSAEAWGRADCGITSASYHQGVLSATILYEILLGKATLYAVLVSALVLMAMVKRKDSRGRAKRSGSGATNFSLLKQAGDVEENPGPTSMALPVTALLLPLALLLHAARPDIVLTQSPATLSLSPGDRATLSCRASESVTILGSHLIYWYQQKPGQAPRLLIQLASNVQTGIPARFSGSGSRTDFTLTISSLEPEDFAVYYCLQSRTIPRTFGQGTKLEIKRGGGGSGGGGSGGGGSQVQLVQSGSELKKPGESVKISCKASGYTFTHYSMNWVRQAPGQGLEWMGRINTETGEPLYADDFKGRFVFSLDTSASTAYLQISSLKAEDTAVYYCSNDYLYSLDYWGQGTLVTVSSTREQKLISEEDGSGIQNPDPAVYQLRDSKSSDKSVCLFTDFDSQTNVSQSKDSDVYITDKCVLDMRSMDFKSNSAVAWSNKSDFACANAFNNSIIPEDTFFPSSDVPCDVKLVEKSFETDTNLNFQNLSVIGFRILLLKVAGFNLLMTLRLWSSRAKRSGSGVKQTLNFDLLKLAGDVESNPGPSRGHMTEYKPTVRLATRDDVPRAVRTLAAAFADYPATRHTVDPDRHIERVTELQELFLTRVGLDIGKVWVADDGAAVAVWTTPESVEAGAVFAEIGPRMAELSGSRLAAQQQMEGLLAPHRPKEPAWFLATVGVSPDHQGKGLGSAVVLPGVEAAERAGVPAFLETSAPRNLPFYERLGFTVTADVEVPEGPRTWCMTRKPGA
NFAT-GFP ASSAY Positive Cell lines: L363 (SIR-expressing Jurkat-NFAT-GFP cells cocultured with L363): L363 (+/−), U266
NFAT-GFP ASSAY Positive Cell lines: U266 (SIR-expressing Jurkat-NFAT-GFP cells cocultured with U266): (+/−)

B2: 012517-J12 (protein)
chain: MALPVTALLLPLALLLHAARPLEGKPIPNPLLGLDSTGSGEDLKNVFPPEVAVFEPSKAEIAHTQKATLVCLATGFYPDHVELSWWVNGKEVHSGVCTDPQPLKEQPALNDSRYCLSSRLRVSATFWQNPRNHFRCQVQFYGLSENDEWTQDRAKPVTQIVSAEAWGRADCGITSASYHQGVLSATILYEILLGKATLYAVLVSALVLMAMVKRKDSRGRAKRSGSGATNFSLLKQAGDVEENPGPTSMALPVTALLLPLALLLHAARPDIQMTQSPASLSASLGETVTIECRTSKDIYSNLAWFQQEPGNSPQLLIYDASNLADGVPSRFSGSGSGTQYSLQINNLQSEDVASYFCHQYNNYPYTFGTGTKLELKGGGGSGGGGSGGGGSQVQLQESGPTLVNPGDSVKMSCKASGYTFTDHIIHWVKQSHGKSLEWIGYINPYSGGANYNGKFKSKATLTIDKSSSTAYMEFSRLTSGDSAIYYCALNYGSYYAMDAWGQGTSVTVSSTREQKLISEEDGSGIQNPDPAVYQLRDSKSSDKSVCLFTDFDSQTNVSQSKDSDVYITDKCVLDMRSMDFKSNSAVAWSNKSDFACANAFNNSIIPEDTFFPSSDVPCDVKLVEKSFETDTNLNFQNLSVIGFRILLLKVAGFNLLMTLRLWSSRAKRSGSGVKQTLNFDLLKLAGDVESNPGPSRGHMTEYKPTVRLATRDDVPRAVRTLAAAFADYPATRHTVDPDRHIERVTELQELFLTRVGLDIGKVWVADDGAAVAVWTTPESVEAGAVFAEIGPRMAELSGSRLAAQQQMEGLLAPHRPKEPAWFLATVGVSPDHQGKGLGSAVVLPGVEAAERAGVPAFLETSAPRNLPFYERLGFTVTADVEVPEGPRTWCMTRKPGA
NFAT-GFP ASSAY Positive Cell lines: L428: L428 (2+)

B3: 111215-J02 (protein)
chain: MDWIWRILFLVGAATGAHSFEVQLVESGGGSVQAGGSLRLSCTTSGRALNMYVMGWFRQAPGNEREFVAATSSSGGSTSYPDSVKGRFTISRDNAKNTVYLQMNSLKPEDTAAYRCAASPYVSTPTMNILEEYRYWGLGTQVTVSSLEGKPIPNPLLGLDSTGSGEDLKNVFPPEVAVFEPSEAEISHTQKATLVCLATGFYPDHVELSWWVNGKEVHSGVCTDPQPLKEQPALNDSRYCLSSRLRVSATFWQNPRNHFRCQVQFYGLSENDEWTQDRAKPVTQIVSAEAWGRADCGFTSESYQQGVLSATILYEILLGKATLYAVLVSALVLMAMVKRKDSRGRAKRSGSGATNFSLLKQAGDVEENPGPTSMDWIWRILFLVGAATGAHSFEVQLVESGGGLVQAGGSLRLSCAASGSIFSGNVMGWYRRQAPGKEREWVAAIASGGSIYYRDSVKGRFTISRDNAKNTVYLQMNSLKPEDTAVYYCNSHPPTLPYWGLGTQVTVSSTREQKLISEEDGSGIQNPDPAVYQLRDSKSSDKSVCLFTDFDSQTNVSQSKDSDVYITDKCVLDMRSMDFKSNSAVAWSNKSDFACANAFNNSIIPEDTFFPSPESSCDVKLVEKSFETDTNLNFQNLSVIGFRILLLKVAGFNLLMTLRLWSSRAKRSGSGVKQTLNFDLLKLAGDVESNPGPSRGHMTEYKPTVRLATRDDVPRAVRTLAAAFADYPATRHTVDPDRHIERVTELQELFLTRVGLDIGKVWVADDGAAVAVWTTPESVEAGAVFAEIGPRMAELSGSRLAAQQQMEGLLAPHRPKEPAWFLATVGVSPDHQGKGLGSAVVLPGVEAAERAGVPAFLETSAPRNLPFYERLGFTVTADVEVPEGPRTWCMTRKPGA
modifications: Synthetic Immune Receptor (SIR)
NFAT-GFP ASSAY Positive Cell lines: Bv173: (+)
NFAT-GFP ASSAY Positive Cell lines: MOLM13 (SIR-expressing Jurkat-NFAT-GFP cells cocultured with MOLM13): MOLM13 (+), Bv173

B4: 111215-K06 (protein)
chain: MDWIWRILFLVGAATGAHSFEVQLVESGGGSVQAGGSLRLSCTTSGRALNMYVMGWFRQAPGNEREFVAATSSSGGSTSYPDSVKGRFTISRDNAKNTVYLQMNSLKPEDTAAYRCAASPYVSTPTMNILEEYRYWGLGTQVTVSSLEGKPIPNPLLGLDSTGSGEDLKNVFPPEVAVFEPSKAEIAHTQKATLVCLATGFYPDHVELSWWVNGKEVHSGVCTDPQPLKEQPALNDSRYCLSSRLRVSATFWQNPRNHFRCQVQFYGLSENDEWTQDRAKPVTQIVSAEAWGRADCGITSASYHQGVLSATILYEILLGKATLYAVLVSALVLMAMVKRKDSRGRAKRSGSGATNFSLLKQAGDVEENPGPTSMDWIWRILFLVGAATGAHSFEVQLVESGGGLVQAGGSLRLSCAASGSIFSGNVMGWYRRQAPGKEREWVAAIASGGSIYYRDSVKGRFTISRDNAKNTVYLQMNSLKPEDTAVYYCNSHPPTLPYWGLGTQVTVSSTREQKLISEEDGSGIQNPDPAVYQLRDSKSSDKSVCLFTDFDSQTNVSQSKDSDVYITDKCVLDMRSMDFKSNSAVAWSNKSDFACANAFNNSIIPEDTFFPSSDVPCDVKLVEKSFETDTNLNFQNLSVIGFRILLLKVAGFNLLMTLRLWSSRAKRSGSGVKQTLNFDLLKLAGDVESNPGPSRGHMTEYKPTVRLATRDDVPRAVRTLAAAFADYPATRHTVDPDRHIERVTELQELFLTRVGLDIGKVWVADDGAAVAVWTTPESVEAGAVFAEIGPRMAELSGSRLAAQQQMEGLLAPHRPKEPAWFLATVGVSPDHQGKGLGSAVVLPGVEAAERAGVPAFLETSAPRNLPFYERLGFTVTADVEVPEGPRTWCMTRKPGA
modifications: Synthetic Immune Receptor (SIR)
NFAT-GFP ASSAY Positive Cell lines: Bv173: Bv173 (+), THP1
NFAT-GFP ASSAY Positive Cell lines: THP1 (SIR-expressing Jurkat-NFAT-GFP cells cocultured with THP1): (+),

B5: 110116-G04 (protein)
chain: MALPVTALLLPLALLLHAARPLEQKLISEEDLGSGDRPDPAVYQLRDSKSSDKSVCLFTDFDSQTNVSQSKDSDVYITDKCVLDMRSMDFKSNSAVAWSNKSDFACANAFNNSIIPEDTFFPSPESSCDVKLVEKSFETDTNLNFQNLSVIGFRILLLKVAGFNLLMTLRLWSSSSRAKRSGSGVKQTLNFDLLKLAGDVESNPGPTSTMALPVTALLLPLALLLHAARPDIVMTQTPLTLSVTIGQPASISCKSSQSLLDSDGKTYLNWLLQRPGQSPERLIYLVSKLDSGVPDRFTGSGSGTDFTLKISRVEAEDLGVYCCWQGTHFPYTFGGGTKVEIKGGGGGSGGGGSGGGGSQVQLQQPGAELVRPGASVKLSCKASGYTFTSYWMNWVKQRPGQGLEWIGMIDPSDSETHYNHIFKDKATLTVDKSSSTAYLQLSSLTSEDSAVYYCARNLYLWGQGTSVTVSSTRGKPIPNPLLGLDSTGSGEDLKNVFPPEVAVFEPSEAEISHTQKATLVCLATGFYPDHVELSWWVNGKEVHSGVCTDPQPLKEQPALNDSRYCLSSRLRVSATFWQNPRNHFRCQVQFYGLSENDEWTQDRAKPVTQIVSAEAWGRADCGFTSESYQQGVLSATILYEILLGKATLYAVLVSALVLMAMVKRKDSRGRAKRSGSGATNFSLLKQAGDVEENPGPSRGHMTEYKPTVRLATRDDVPRAVRTLAAAFADYPATRHTVDPDRHIERVTELQELFLTRVGLDIGKVWVADDGAAVAVWTTPESVEAGAVFAEIGPRMAELSGSRLAAQQQMEGLLAPHRPKEPAWFLATVGVSPDHQGKGLGSAVVLPGVEAAERAGVPAFLETSAPRNLPFYERLGFTVTADVEVPEGPRTWCMTRKPGA
modifications: Synthetic Immune Receptor (SIR)
NFAT-GFP ASSAY Positive Cell lines: RAJI (SIR-expressing Jurkat-NFAT-GFP cells cocultured with RAJI): RAJI (+/−)

B6: 012517-G12 (protein)
chain: MALPVTALLLPLALLLHAARPLEGKPIPNPLLGLDSTGSGEDLKNVFPPEVAVFEPSKAEIAHTQKATLVCLATGFYPDHVELSWWVNGKEVHSGVCTDPQPLKEQPALNDSRYCLSSRLRVSATFWQNPRNHFRCQVQFYGLSENDEWTQDRAKPVTQIVSAEAWGRADCGITSASYHQGVLSATILYEILLGKATLYAVLVSALVLMAMVKRKDSRGRAKRSGSGATNFSLLKQAGDVEENPGPTSMALPVTALLLPLALLLHAARPDFVMTQSPDSLAVSLGERVTMSCKSSQSLLNSGNQKNYLTWYQQKPGQPPKLLIYWASTRESGVPDRFSGSGSGTDFTLTISSLQAEDVAVYYCQNDYSYPYTFGQGTKLEIKGGGGSGGGGSGGGGSQVQLVQSGAELKKPGASVKVSCKASGYTFTDYYMKWVRQAPGQGLEWIGDIIPSNGATFYNQKFKGRVTITVDKSTSTAYMELSSLRSEDTAVYYCARSHLLRASWFAYWGQGTLVTVSSTREQKLISEEDGSGIQNPDPAVYQLRDSKSSDKSVCLFTDFDSQTNVSQSKDSDVYITDKCVLDMRSMDFKSNSAVAWSNKSDFACANAFNNSIIPEDTFFPSSDVPCDVKLVEKSFETDTNLNFQNLSVIGFRILLLKVAGFNLLMTLRLWSSRAKRSGSGVKQTLNFDLLKLAGDVESNPGPSRGHMTEYKPTVRLATRDDVPRAVRTLAAAFADYPATRHTVDPDRHIERVTELQELFLTRVGLDIGKVWVADDGAAVAVWTTPESVEAGAVFAEIGPRMAELSGSRLAAQQQMEGLLAPHRPKEPAWFLATVGVSPDHQGKGLGSAVVLPGVEAAERAGVPAFLETSAPRNLPFYERLGFTVTADVEVPEGPRTWCMTRKPGA
NFAT-GFP ASSAY Positive Cell lines: L428: L428 (+/−)
